The values that follow come from the supplement of paper PMC10567573.

The labels stand for the following.
B1: PTPRD (parent)
chain: ELDELLKEISRKRRSIRYGREVEL
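Note: lentivirally expressed fusions sorted by FACS into six bins by GFP to DsRed ratio, PSI derived from sequencing read proportions per bin multiplied by bin number.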

In the series the parent is B1. Briefly: protein stability index of a GFP-peptide fusion (GPS, HEK-293T) (PSI 1-6); higher = more stable. To be noted: c terminus: a fixed tail appended.
With ELDRLLKEISRKRRSIRYGREVEL [E4R], the protein stability index was 2.16.
Turning to ELDFLLKEISRKRRSIRYGREVEL [E4F], the protein stability index is 2.39.
The same measure for ELDHLLKEISRKRRSIRYGREVEL [E4H]: 2.6; for ELDVLLKEISRKRRSIRYGREVEL [E4V]: 1.94; for ELDILLKEISRKRRSIRYGREVEL [E4I]: 1.73.
Regarding ELDCLLKEISRKRRSIRYGREVEL [E4C], the protein stability index is 1.57.
The same measure for ELDYLLKEISRKRRSIRYGREVEL [E4Y]: 1.27; for ELDQLLKEISRKRRSIRYGREVEL [E4Q]: 1.99.
The same measure for ELDGLLKEISRKRRSIRYGREVEL [E4G]: 3.34; for ELDPLLKEISRKRRSIRYGREVEL [E4P]: 2.48.
With ELDMLLKEISRKRRSIRYGREVEL [E4M] the figure was 1.9.
With ELDKLLKEISRKRRSIRYGREVEL [E4K], the protein stability index is 2.59.
ELDDLLKEISRKRRSIRYGREVEL [E4D]: the protein stability index is 2.07.
As for ELDTLLKEISRKRRSIRYGREVEL [E4T], the protein stability index stood at 1.88.
The same measure for ELDWLLKEISRKRRSIRYGREVEL [E4W]: 2.29; for ELDSLLKEISRKRRSIRYGREVEL [E4S]: 1.85.
With ELDLLLKEISRKRRSIRYGREVEL [E4L] the figure was 2.19.
The same measure for ELDALLKEISRKRRSIRYGREVEL [E4A]: 3.26; for ELDELLKEIMRKRRSIRYGREVEL [S10M]: 2.24; for ELDELLKEIARKRRSIRYGREVEL [S10A]: 2.44.
In the case of ELDELLKEIYRKRRSIRYGREVEL [S10Y], the protein stability index was found to be 2.06.
With ELDELLKEITRKRRSIRYGREVEL [S10T] the figure was 2.49; with ELDELLKEIDRKRRSIRYGREVEL [S10D], 2.87.
The same measure for ELDELLKEINRKRRSIRYGREVEL [S10N]: 2.77.
Regarding ELDELLKEIGRKRRSIRYGREVEL [S10G], the protein stability index is 2.44.
The same measure for ELDELLKEIKRKRRSIRYGREVEL [S10K]: 2.17; for ELDELLKEIQRKRRSIRYGREVEL [S10Q]: 2.2; for ELDELLKEIIRKRRSIRYGREVEL [S10I]: 2.09.
With ELDELLKEIVRKRRSIRYGREVEL [S10V] the figure was 2.48; with ELDELLKEIHRKRRSIRYGREVEL [S10H], 2.68; with ELDELLKEIERKRRSIRYGREVEL [S10E], 2.84.
Regarding ELDELLKEIPRKRRSIRYGREVEL [S10P], the protein stability index was 3.01.
As for ELDELLKEILRKRRSIRYGREVEL [S10L], the protein stability index was 1.41.
For ELDELLKEIFRKRRSIRYGREVEL [S10F], the protein stability index amounted to 1.78.
With ELDELLKEIWRKRRSIRYGREVEL [S10W] the figure was 1.48.
With ELDELLKEIRRKRRSIRYGREVEL [S10R] the figure was 2.48; with ELDELLKEICRKRRSIRYGREVEL [S10C], 3.15; with ENDELLKEISRKRRSIRYGREVEL [L2N], 4.2.
The same measure for ESDELLKEISRKRRSIRYGREVEL [L2S]: 2.99; for EEDELLKEISRKRRSIRYGREVEL [L2E]: 4.41.
As for EQDELLKEISRKRRSIRYGREVEL [L2Q], the protein stability index came to 4.26.
The same measure for ETDELLKEISRKRRSIRYGREVEL [L2T]: 3.38; for EVDELLKEISRKRRSIRYGREVEL [L2V]: 2.43; for EPDELLKEISRKRRSIRYGREVEL [L2P]: 3.47.
With ECDELLKEISRKRRSIRYGREVEL [L2C], the protein stability index was found to be 3.06.
The same measure for EKDELLKEISRKRRSIRYGREVEL [L2K]: 4.09.
With EIDELLKEISRKRRSIRYGREVEL [L2I] the figure was 2.6; with EHDELLKEISRKRRSIRYGREVEL [L2H], 4.32.
Take EWDELLKEISRKRRSIRYGREVEL [L2W]: the protein stability index worked out at 2.99.
Regarding EDDELLKEISRKRRSIRYGREVEL [L2D], the protein stability index is 4.14.
As to EADELLKEISRKRRSIRYGREVEL [L2A], the protein stability index was 3.79.
On to EYDELLKEISRKRRSIRYGREVEL [L2Y], for which the protein stability index stood at 3.54.
Turning to EGDELLKEISRKRRSIRYGREVEL [L2G], the protein stability index was 3.58.
For EMDELLKEISRKRRSIRYGREVEL [L2M], the protein stability index was 2.92.
With ERDELLKEISRKRRSIRYGREVEL [L2R] the figure was 3.71; with EFDELLKEISRKRRSIRYGREVEL [L2F], 2.49; with QLDELLKEISRKRRSIRYGREVEL [E1Q], 2.41.
The same measure for CLDELLKEISRKRRSIRYGREVEL [E1C]: 2.07; for NLDELLKEISRKRRSIRYGREVEL [E1N]: 2.56.
The same measure for TLDELLKEISRKRRSIRYGREVEL [E1T]: 3.25; for GLDELLKEISRKRRSIRYGREVEL [E1G]: 2.52; for VLDELLKEISRKRRSIRYGREVEL [E1V]: 1.93.
Turning to ILDELLKEISRKRRSIRYGREVEL [E1I], the protein stability index is 1.77.
With RLDELLKEISRKRRSIRYGREVEL [E1R], the protein stability index came to 2.17.
The same measure for FLDELLKEISRKRRSIRYGREVEL [E1F]: 1.83.
The same measure for MLDELLKEISRKRRSIRYGREVEL [E1M]: 2.73; for PLDELLKEISRKRRSIRYGREVEL [E1P]: 3.07; for SLDELLKEISRKRRSIRYGREVEL [E1S]: 4.1.
For DLDELLKEISRKRRSIRYGREVEL [E1D], the protein stability index was found to be 2.3.
The same measure for WLDELLKEISRKRRSIRYGREVEL [E1W]: 2.69; for HLDELLKEISRKRRSIRYGREVEL [E1H]: 2.47; for LLDELLKEISRKRRSIRYGREVEL [E1L]: 1.98.
Consider ALDELLKEISRKRRSIRYGREVEL [E1A], for which the protein stability index amounted to 2.54.
On to KLDELLKEISRKRRSIRYGREVEL [E1K], for which the protein stability index is 2.26.
ELDEHLKEISRKRRSIRYGREVEL [L5H]: the protein stability index amounted to 4.08.
The same measure for ELDERLKEISRKRRSIRYGREVEL [L5R]: 3.18; for ELDEILKEISRKRRSIRYGREVEL [L5I]: 2.45.
The same measure for ELDEALKEISRKRRSIRYGREVEL [L5A]: 3.07.
Turning to ELDECLKEISRKRRSIRYGREVEL [L5C], the protein stability index came to 3.12.
The same measure for ELDEGLKEISRKRRSIRYGREVEL [L5G]: 3.96; for ELDENLKEISRKRRSIRYGREVEL [L5N]: 2.69.
Consider ELDEELKEISRKRRSIRYGREVEL [L5E], for which the protein stability index was 4.15.
For the variant ELDEYLKEISRKRRSIRYGREVEL [L5Y], the protein stability index was determined as 3.44.
The same measure for ELDEKLKEISRKRRSIRYGREVEL [L5K]: 3.61; for ELDEDLKEISRKRRSIRYGREVEL [L5D]: 3.73; for ELDESLKEISRKRRSIRYGREVEL [L5S]: 3.6.
The same measure for ELDETLKEISRKRRSIRYGREVEL [L5T]: 3.58.
With ELDEVLKEISRKRRSIRYGREVEL [L5V] the figure was 2.86; with ELDEPLKEISRKRRSIRYGREVEL [L5P], 3.82.
On to ELDEWLKEISRKRRSIRYGREVEL [L5W], for which the protein stability index was found to be 2.35.
The same measure for ELDEMLKEISRKRRSIRYGREVEL [L5M]: 3.25; for ELDEQLKEISRKRRSIRYGREVEL [L5Q]: 4.14.
Turning to ELDEFLKEISRKRRSIRYGREVEL [L5F], the protein stability index worked out at 2.69.
Consider ELDELLKDISRKRRSIRYGREVEL [E8D], for which the protein stability index was 2.92.
